Test results published in patent US20120177704A1.

Molecular target: human interleukin 12 (human) (UniProt P29459)
Assay: cell-based or functional assay

UniProt P29459, sequence (P29459 23-219 limits assumed, chain 1 of 2): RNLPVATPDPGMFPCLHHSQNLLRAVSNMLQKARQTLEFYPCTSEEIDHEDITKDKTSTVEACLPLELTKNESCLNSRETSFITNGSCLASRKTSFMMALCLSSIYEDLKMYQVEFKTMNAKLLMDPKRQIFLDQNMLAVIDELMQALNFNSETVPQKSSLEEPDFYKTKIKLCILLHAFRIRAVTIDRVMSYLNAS
UniProt P29459, sequence (P29460 23-328 limits assumed, chain 2 of 2, further chain): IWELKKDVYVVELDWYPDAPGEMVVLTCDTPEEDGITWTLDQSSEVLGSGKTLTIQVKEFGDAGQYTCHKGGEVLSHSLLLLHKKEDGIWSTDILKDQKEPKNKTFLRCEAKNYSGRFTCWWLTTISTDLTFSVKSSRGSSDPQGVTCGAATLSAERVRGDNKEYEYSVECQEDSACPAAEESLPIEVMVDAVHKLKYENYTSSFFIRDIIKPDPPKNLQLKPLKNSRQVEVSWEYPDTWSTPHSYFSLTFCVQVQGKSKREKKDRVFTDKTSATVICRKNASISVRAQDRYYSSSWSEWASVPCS

monoclonal antibody ABT-874
relative biological activity (mean IC50 of reference standard / IC50 of sample x 100%); inhibition of IL-12-stimulated IFN-γ production of NK-92 cells, IFN-γ measured by ELISA: 98%
